Assay results: the supplement of paper PMC7125110
± gives the standard error. Variants at the floor of the assay were thinned out.

B1: glmS ribozyme (parent)
chain: AUAAAAGCGCCAGAACUACAGAAAUGUAGUUGACGAGGAGGAGGUUUAUCGAAUUUUCGGCGGAUGCCUCCAAA

Assays:
Conditions in all cases: with glucosamine-6-phosphate
glucosamine-6-phosphate [1] = variants of: B1; test: self-cleavage kobs at 40 uM GlcN6P; higher = faster cleavage; RNA array
Summary of the method: (§1)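 Barcoded ribozyme variants, transcribed in situ by E. coli RNA polymerase on sequenced MiSeq chips, were followed via a hybridised Cy3 probe at 37 °C. Glucosamine-6-phosphate ranged from 40 μM to 10 mM in HEPES/KCl/Mg(OAc)2 buffer. kobs came from decay fits to per-tile medians, and kcat and KM from weighted Michaelis–Menten fits.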

glucosamine-6-phosphate [2] = variants of: B1; test: self-cleavage kobs at 640 uM GlcN6P; higher = faster cleavage; RNA array
Summary of the method: as §1

glucosamine-6-phosphate [3] = variants of: B1; test: self-cleavage kobs at 2500 uM GlcN6P; higher = faster cleavage; RNA array
Summary of the method: as §1

glucosamine-6-phosphate [4] = variants of: B1; test: self-cleavage kobs at 10000 uM GlcN6P; higher = faster cleavage; RNA array
Summary of the method: as §1

glucosamine-6-phosphate [5] = variants of: B1; test: self-cleavage kobs at 160 uM GlcN6P; higher = faster cleavage; RNA array
Summary of the method: as §1

Variant	self-cleavage kobs at 40 uM GlcN6P (glucosamine-6-phosphate [1]) [s⁻¹]	self-cleavage kobs at 640 uM GlcN6P (glucosamine-6-phosphate [2]) [s⁻¹]	self-cleavage kobs at 2500 uM GlcN6P (glucosamine-6-phosphate [3]) [s⁻¹]	self-cleavage kobs at 10000 uM GlcN6P (glucosamine-6-phosphate [4]) [s⁻¹]	self-cleavage kobs at 160 uM GlcN6P (glucosamine-6-phosphate [5]) [s⁻¹]
G7C G13C G63U C70G	< 1e-05	< 1e-05	< 1e-05	< 1e-05	
G7U C10U G13C A52G	< 1e-05				
C8A G62U	< 1e-05			5.53e-05 ± 1.6e-05	< 1e-05
G7U U31A G32U G41U A48U	< 1e-05			< 1e-05	
G7A C34A	< 1e-05	< 1e-05	< 1e-05	< 1e-05	< 1e-05
G7U G9C G35C A36U U49A U56A	< 1e-05				
A6U A33U	< 1e-05	< 1e-05	< 1e-05	< 1e-05	
A6U A33G	< 1e-05	< 1e-05			
G7U C11G	< 1e-05	< 1e-05	< 1e-05	< 1e-05	< 1e-05
C8G G9A A39U U47G C68U	< 1e-05				
G7U A33C	< 1e-05	< 1e-05	< 1e-05	< 1e-05	< 1e-05
C8G G13U U30C G43U	< 1e-05				
G7C G43U	< 1e-05	< 1e-05		< 1e-05	< 1e-05
C8A C67G	< 1e-05	< 1e-05	< 1e-05	< 1e-05	< 1e-05
G7A A52C	< 1e-05	< 1e-05	< 1e-05	< 1e-05	< 1e-05
C8G C50G A53G A64G	0.000149 ± 6.6e-05				
G7C C11G G51A	< 1e-05			< 1e-05	
C8G C34U A42U	< 1e-05				
G7C G35A	< 1e-05	< 1e-05	< 1e-05	< 1e-05	
G7A A14U C58A C68G	0.000142 ± 4e-05	0.00047 ± 0.00023		0.00011 ± 2.5e-05	
G7U C10G A15C G37C	< 1e-05				

Variant	self-cleavage kobs at 40 uM GlcN6P (glucosamine-6-phosphate [1]) [s⁻¹]	self-cleavage kobs at 640 uM GlcN6P (glucosamine-6-phosphate [2]) [s⁻¹]	self-cleavage kobs at 2500 uM GlcN6P (glucosamine-6-phosphate [3]) [s⁻¹]	self-cleavage kobs at 10000 uM GlcN6P (glucosamine-6-phosphate [4]) [s⁻¹]	self-cleavage kobs at 160 uM GlcN6P (glucosamine-6-phosphate [5]) [s⁻¹]
G7U G62A	< 1e-05	< 1e-05	< 1e-05		< 1e-05
G7U G62C	< 1e-05	< 1e-05	< 1e-05	< 1e-05	< 1e-05
G7U G38A	< 1e-05			< 1e-05	< 1e-05
G7U U65C	< 1e-05	< 1e-05	< 1e-05	< 1e-05	< 1e-05
G7C G9C U31C G40A	< 1e-05			< 1e-05	
G7U U54C	< 1e-05	< 1e-05		< 1e-05	< 1e-05
G7C U30A	< 1e-05	< 1e-05	< 1e-05	< 1e-05	< 1e-05
G7C A64G	< 1e-05	< 1e-05	< 1e-05		< 1e-05
G7C A64U	< 1e-05		< 1e-05	< 1e-05	
G7U A15G	< 1e-05	< 1e-05	< 1e-05	< 1e-05	< 1e-05
G7A U69G	0.000261 ± 4.3e-05	7.58e-05 ± 3.5e-05		0.000569 ± 0.00011	
G7A G9U A48G	< 1e-05				
C8G A48G U54A	< 1e-05		< 1e-05	< 1e-05	
G7C U56A G60U G62A	< 1e-05				
G7U G35C	< 1e-05	< 1e-05	< 1e-05	< 1e-05	< 1e-05
G7U G35A	< 1e-05	< 1e-05	< 1e-05	< 1e-05	< 1e-05
C8G C10U	< 1e-05			< 1e-05	
G7A G51A C67A	< 1e-05			< 1e-05	
A6U C8G A33U C34G U69G	8.53e-05 ± 1.8e-05	0.000181 ± 5.7e-05		6.82e-05 ± 1.7e-05	
G7C G51A U56A C67G C68A	0.000619 ± 0.0002			7.59e-05 ± 1.5e-05	
C8G G29A	< 1e-05	< 1e-05	< 1e-05	< 1e-05	< 1e-05
